Here are results for one protein from paper PMC3378865 (Nucleic Acids Research, 2012).

In general, stoichiometry N refers to the number of molecules, sites or subunits per partner or assembly.

This data set deals with the molecule itself. The experiment in a line: cross-linking.

B1: OxyR (PA5344) of Pseudomonas aeruginosa PAO1 with a carboxyl-terminal His-tag (natural protein, UniProt Q9HTL4 1-310, looked up)
chain: MTLTELRYIVTLAQEQHFGRAAERCHVSQPTLSVGVKKLEDELGVLIFERSKSAVRLTPVGEGIVAQAQKVLEQAQGIRELAQAGKNQLAAPLKVGAIYTIGPYLFPHLIPQLHRVAPQMPLYIEENFTHILRDKLRTGELDAIIIALPFQEADVLTKPLFDEPFYVLMPADHPWTAKASIDSELLNDKSLLLLGEGHCFRDQVLEACPTVRKGDENKHTTVESSSLETIRHMVASGLGVSVLPFSAVDSHHYAPGVIEVRPFSAPVPFRTVAIAWRASFPRPRAIEVLADSIRLCSVARPQTQEQPQIA
In the case of B1, the “stoichiometry N” value was found to be 2.
